Assay [1] concerns the target HCV envelope glycoproteins E1 and E2 of genotype 3a on HCV pseudoparticles (Hepatitis C virus genotype 3a).
Assay [2] addresses HCV envelope glycoproteins E1 and E2 on HCV genotype 3a virus from patients' serum (Hepatitis C virus genotype 3a).

B1: Galanthus nivalis agglutinin (natural protein)
chain: SCLSDNILYSGETLSTGEFLNYGSFVFIMQEDCNLVLYDVDKPIWATNTGGLSRSCFLSMQTDGNLVVYNPSNKPIWASNTGGQNGNYVCILQKDRNVVIYGTDRWATG
In the case of B1, in assay [1], the inhibition of HCVpp entry into Huh-7 cells, concentration of GNA for 50% reduction (Figure 3a and 3b) amounted to 1 µg. Further, in assay [2], the infection of Huh-7 cells by HCV 3a virus pre-incubated with GNA, HCV RNA by quantitative RT-PCR, EC50 (Figure 4) worked out at 1 µg and the infection of Huh-7 cells by HCV 3a virus pre-incubated with GNA, HCV RNA by quantitative RT-PCR, EC90 (Figure 4) is 5 µg.

(Values after PMC3117843.)
